Tested on: OmpR-VP64
Test: Screen of EnvZ variants for kinase and phosphatase activity on OmpR-VP64-driven output
Assay type: cell-based
Settings: FIG. 3B
Text: The well-studied EnvZ-OmpR system was used to develop feedback controllers of the present disclosure, using separate kinase and phosphatase variants of EnvZ, and an OmpR-VP64 fusion protein as an activator for promoting transcription of a reporter protein. Kinase and phosphatase variants of the HK EnvZ through mutation and/or truncation (FIG. 3A). […] However, the phosphatase EnvZ activity was weak compared to the EnvZm2 kinase. To create a stronger phosphatase, a DHp domain of EnvZ was fused to a leucine zipper GCN4 domain, with GCN4 at the N-terminus and EnvZm2 at the C-terminus, to lock the DHp domain of an HK into fixed conformations (FIG. 3C). […]
The phosphatase regulator was further modified to allow tunability by use of a small molecule. […] Expression of both proteins from the same nucleic acid and translation from the same mRNA, such as by separating coding sequences by a 2A motif or open reading frames IRES cassette, ensures maximal coupling of transcription and translation of the two proteins. […]
For quantifying the effects of EnvZ variants and perturbations, fold-changes were calculated by dividing the median output level of each sample by that of the equivalent sample in the absence of the EnvZ variant or perturbation. […]

B1: EnvZm2: kinase+/phosphatase− mutant of EnvZ containing a T247A mutation (SEQ ID NO: 3) (protein)
chain: MRRLRFSPRSSFARTLLLIVTLLFASLVTTYLVVLNFAILPSLQQFNKVLAYEVRMLMTDKLQLEDGTQLVVPPAFRREIYRELGISLYSNEAAEEAGLRWAQHYEFLSHQMAQQLGGPTEVRVEVNKSSPVVWLKTWLSPNIWVRVPLTEIHQGDFSPLFRYTLAIMLLAIGGAWLFIRIQNRPLVDLEHAALQVGKGIIPPPLREYGASEVRSVTRAFNHMAAGVKQLADDRTLLMAGVSHDLRAPLTRIRLATEMMSEQDGYLAESINKDIEECNAIIEQFIDYLRTGQEMPMEMADLNAVLGEVIAAESGYEREIETALYPGSIEVKMHPLSIKRAVANMVVNAARYGNGWIKVSSGTEPNRAWFQVEDDGPGIAPEQRKHLFQPFVRGDSARTISGTGLGLAIVQRIVDNHNGMLELGTSERGGLSIRAWLPVPVTRAQGTTKEG
kinase activity (phosphorylation of OmpR): particularly effective in phosphorylating OmpR
